Data as given in patent US20200199234A1 (published 2020).

T1: human CD19 on Nalm6 B cells (human, UniProt P15391 20-556)
T1 sequence: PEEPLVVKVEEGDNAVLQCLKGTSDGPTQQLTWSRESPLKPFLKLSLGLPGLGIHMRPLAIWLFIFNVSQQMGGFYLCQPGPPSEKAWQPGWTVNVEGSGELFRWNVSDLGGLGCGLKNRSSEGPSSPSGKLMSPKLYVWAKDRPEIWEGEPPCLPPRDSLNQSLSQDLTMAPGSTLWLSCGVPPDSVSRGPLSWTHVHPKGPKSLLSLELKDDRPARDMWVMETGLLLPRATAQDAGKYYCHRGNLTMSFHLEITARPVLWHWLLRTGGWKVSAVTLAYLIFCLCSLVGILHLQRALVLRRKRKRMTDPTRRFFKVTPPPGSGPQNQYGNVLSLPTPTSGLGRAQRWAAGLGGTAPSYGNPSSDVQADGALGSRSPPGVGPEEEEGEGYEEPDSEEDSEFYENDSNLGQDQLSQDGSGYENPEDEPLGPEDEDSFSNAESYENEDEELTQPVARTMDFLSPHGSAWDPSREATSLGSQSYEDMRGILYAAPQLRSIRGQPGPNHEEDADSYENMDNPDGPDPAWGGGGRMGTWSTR


What was measured:
[1] = biological target: T1, human CD19 on Nalm6 B cells; experiment: flow cytometry on Nalm6 cells
[2] = biological target: T2, human CD28 expressed on cells (CHO-k1 stably overexpressing human CD28; T cells in functional assays) (human, UniProt P10747 19-220); experiment: flow cytometry on CHOk1-CD28 cells
T2 construct: also called CHO huCD28; CHOk1-CD28

[3] = biological target: T2, human CD28 expressed on cells (CHO-k1 …); experiment: cell-based or functional assay

Row | EC50 [1] [nM] | EC50 [2] [nM] | Binder | EC50 killing (nM), TCB-mediated killing of MV3 target cells [3] [nM]
1 | 0.232 | 232 | Molecule 18C: CD19 (8B8-2B11)-CD28 (SA v8) 1+1 (bispecific antibody, human IgG1, kappa, L234A L235A, also called P1AF0175; CD19-CD28 v8) heavy 1: not shown heavy 2: DIVMTQTPLSLSVTPGQPASISCKSSQSLETSTGTTYLNWYLQKPGQSPQLLIYRVSKRFSGVPDRFSGSGSGTDFTLKISRVEAEDVGVYYCLQLLEDPYTFGQGTKLEIKSSASTKGPSVFPLAPSSKSTSGGTAALGCLVKDYFPEPVTVSWNSGALTSGVHTFPAVLQSSGLYSLSSVVTVPSSSLGTQTYICNVNHKPSNTKVDKKVEPKSCDKTHTCPPCPAPEAAGGPSVFLFPPKPKDTLMISRTPEVTCVVVDVSHEDPEVKFNWYVDGVEVHNAKTKPREEQYNSTYRVVSVLTVLHQDWLNGKEYKCKVSNKALGAPIEKTISKAKGQPREPQVCTLPPSRDELTKNQVSLSCAVKGFYPSDIAVEWESNGQPENNYKTTPPVLDSDGSFFLVSKLTVDKSRWQQGNVFSCSVMHEALHNHYTQKSLSLSP light 1: not shown light 2: QVQLVQSGAEVKKPGASVKVSCKASGYTFTDYIMHWVRQAPGQGLEWMGYINPYNDGSKYTEKFQGRVTMTSDTSISTAYMELSRLRSDDTAVYYCARGTYYYGPQLFDYWGQGTTVTVSSASVAAPSVFIFPPSDEQLKSGTASVVCLLNNFYPREAKVQWKVDNALQSGNSQESVTEQDSKDSTYSLSSTLTLSKADYEKHKVYACEVTHQGLSSPVTKSFNRGEC | –
2 | 0.274 | 6.65 | Molecule 18A: CD19 (8B8-2B11)-CD28 (SA v29) 1+1 (bispecific antibody, human IgG1, kappa, L234A L235A, also called P1AE8002; CD19-CD28 v29) heavy 1: not shown heavy 2: DIVMTQTPLSLSVTPGQPASISCKSSQSLETSTGTTYLNWYLQKPGQSPQLLIYRVSKRFSGVPDRFSGSGSGTDFTLKISRVEAEDVGVYYCLQLLEDPYTFGQGTKLEIKSSASTKGPSVFPLAPSSKSTSGGTAALGCLVKDYFPEPVTVSWNSGALTSGVHTFPAVLQSSGLYSLSSVVTVPSSSLGTQTYICNVNHKPSNTKVDKKVEPKSCDKTHTCPPCPAPEAAGGPSVFLFPPKPKDTLMISRTPEVTCVVVDVSHEDPEVKFNWYVDGVEVHNAKTKPREEQYNSTYRVVSVLTVLHQDWLNGKEYKCKVSNKALGAPIEKTISKAKGQPREPQVCTLPPSRDELTKNQVSLSCAVKGFYPSDIAVEWESNGQPENNYKTTPPVLDSDGSFFLVSKLTVDKSRWQQGNVFSCSVMHEALHNHYTQKSLSLSP light 1: not shown light 2: QVQLVQSGAEVKKPGASVKVSCKASGYTFTDYIMHWVRQAPGQGLEWMGYINPYNDGSKYTEKFQGRVTMTSDTSISTAYMELSRLRSDDTAVYYCARGTYYYGPQLFDYWGQGTTVTVSSASVAAPSVFIFPPSDEQLKSGTASVVCLLNNFYPREAKVQWKVDNALQSGNSQESVTEQDSKDSTYSLSSTLTLSKADYEKHKVYACEVTHQGLSSPVTKSFNRGEC | –
3 | – | – | FAP (4B9) - CD28 (CD28(SA)_Variant 11) 1+1 (bispecific antibody, human IgG1, kappa, L234A L235A) heavy 1: EIVLTQSPGTLSLSPGERATLSCRASQSVTSSYLAWYQQKPGQAPRLLINVGSRRATGIPDRFSGSGSGTDFTLTISRLEPEDFAVYYCQQGIMLPPTFGQGTKVEIKSSASTKGPSVFPLAPSSKSTSGGTAALGCLVKDYFPEPVTVSWNSGALTSGVHTFPAVLQSSGLYSLSSVVTVPSSSLGTQTYICNVNHKPSNTKVDKKVEPKSCDKTHTCPPCPAPEAAGGPSVFLFPPKPKDTLMISRTPEVTCVVVDVSHEDPEVKFNWYVDGVEVHNAKTKPREEQYNSTYRVVSVLTVLHQDWLNGKEYKCKVSNKALGAPIEKTISKAKGQPREPQVCTLPPSRDELTKNQVSLSCAVKGFYPSDIAVEWESNGQPENNYKTTPPVLDSDGSFFLVSKLTVDKSRWQQGNVFSCSVMHEALHNHYTQKSLSLSP light 1: EVQLLESGGGLVQPGGSLRLSCAASGFTFSSYAMSWVRQAPGKGLEWVSAIIGSGASTYYADSVKGRFTISRDNSKNTLYLQMNSLRAEDTAVYYCAKGWFGGFNYWGQGTLVTVSSASVAAPSVFIFPPSDEQLKSGTASVVCLLNNFYPREAKVQWKVDNALQSGNSQESVTEQDSKDSTYSLSSTLTLSKADYEKHKVYACEVTHQGLSSPVTKSFNRGEC heavy 2: not shown light 2: not shown | 1.73
4 | – | – | FAP (4B9) - CD28 (CD28(SA)_Variant 12) 1+1 (bispecific antibody, human IgG1, kappa, L234A L235A) heavy 1: EIVLTQSPGTLSLSPGERATLSCRASQSVTSSYLAWYQQKPGQAPRLLINVGSRRATGIPDRFSGSGSGTDFTLTISRLEPEDFAVYYCQQGIMLPPTFGQGTKVEIKSSASTKGPSVFPLAPSSKSTSGGTAALGCLVKDYFPEPVTVSWNSGALTSGVHTFPAVLQSSGLYSLSSVVTVPSSSLGTQTYICNVNHKPSNTKVDKKVEPKSCDKTHTCPPCPAPEAAGGPSVFLFPPKPKDTLMISRTPEVTCVVVDVSHEDPEVKFNWYVDGVEVHNAKTKPREEQYNSTYRVVSVLTVLHQDWLNGKEYKCKVSNKALGAPIEKTISKAKGQPREPQVCTLPPSRDELTKNQVSLSCAVKGFYPSDIAVEWESNGQPENNYKTTPPVLDSDGSFFLVSKLTVDKSRWQQGNVFSCSVMHEALHNHYTQKSLSLSP light 1: EVQLLESGGGLVQPGGSLRLSCAASGFTFSSYAMSWVRQAPGKGLEWVSAIIGSGASTYYADSVKGRFTISRDNSKNTLYLQMNSLRAEDTAVYYCAKGWFGGFNYWGQGTLVTVSSASVAAPSVFIFPPSDEQLKSGTASVVCLLNNFYPREAKVQWKVDNALQSGNSQESVTEQDSKDSTYSLSSTLTLSKADYEKHKVYACEVTHQGLSSPVTKSFNRGEC heavy 2: not shown light 2: DIQMTQSPSSLSASVGDRVTITCRASQNIYVWLNWYQQKPGKAPKLLIYKASNLYSGVPSRFSGSRSGTDFTLTISSLQPEDFATYYCQQGQTYPYTFGQGTKLEIKRTVAAPSVFIFPPSDRKLKSGTASVVCLLNNFYPREAKVQWKVDNALQSGNSQESVTEQDSKDSTYSLSSTLTLSKADYEKHKVYACEVTHQGLSSPVTKSFNRGEC | 0.98
5 | – | – | FAP (4B9) - CD28 (CD28(SA)_Variant 29) 1+1 (bispecific antibody, human IgG1, kappa, L234A L235A) heavy 1: EIVLTQSPGTLSLSPGERATLSCRASQSVTSSYLAWYQQKPGQAPRLLINVGSRRATGIPDRFSGSGSGTDFTLTISRLEPEDFAVYYCQQGIMLPPTFGQGTKVEIKSSASTKGPSVFPLAPSSKSTSGGTAALGCLVKDYFPEPVTVSWNSGALTSGVHTFPAVLQSSGLYSLSSVVTVPSSSLGTQTYICNVNHKPSNTKVDKKVEPKSCDKTHTCPPCPAPEAAGGPSVFLFPPKPKDTLMISRTPEVTCVVVDVSHEDPEVKFNWYVDGVEVHNAKTKPREEQYNSTYRVVSVLTVLHQDWLNGKEYKCKVSNKALGAPIEKTISKAKGQPREPQVCTLPPSRDELTKNQVSLSCAVKGFYPSDIAVEWESNGQPENNYKTTPPVLDSDGSFFLVSKLTVDKSRWQQGNVFSCSVMHEALHNHYTQKSLSLSP light 1: EVQLLESGGGLVQPGGSLRLSCAASGFTFSSYAMSWVRQAPGKGLEWVSAIIGSGASTYYADSVKGRFTISRDNSKNTLYLQMNSLRAEDTAVYYCAKGWFGGFNYWGQGTLVTVSSASVAAPSVFIFPPSDEQLKSGTASVVCLLNNFYPREAKVQWKVDNALQSGNSQESVTEQDSKDSTYSLSSTLTLSKADYEKHKVYACEVTHQGLSSPVTKSFNRGEC heavy 2: not shown light 2: not shown | 1.11
6 | – | – | FAP (4B9) - CD28 (CD28(SA)_Variant 15) 1+1 (bispecific antibody, human IgG1, kappa, L234A L235A) heavy 1: EIVLTQSPGTLSLSPGERATLSCRASQSVTSSYLAWYQQKPGQAPRLLINVGSRRATGIPDRFSGSGSGTDFTLTISRLEPEDFAVYYCQQGIMLPPTFGQGTKVEIKSSASTKGPSVFPLAPSSKSTSGGTAALGCLVKDYFPEPVTVSWNSGALTSGVHTFPAVLQSSGLYSLSSVVTVPSSSLGTQTYICNVNHKPSNTKVDKKVEPKSCDKTHTCPPCPAPEAAGGPSVFLFPPKPKDTLMISRTPEVTCVVVDVSHEDPEVKFNWYVDGVEVHNAKTKPREEQYNSTYRVVSVLTVLHQDWLNGKEYKCKVSNKALGAPIEKTISKAKGQPREPQVCTLPPSRDELTKNQVSLSCAVKGFYPSDIAVEWESNGQPENNYKTTPPVLDSDGSFFLVSKLTVDKSRWQQGNVFSCSVMHEALHNHYTQKSLSLSP light 1: EVQLLESGGGLVQPGGSLRLSCAASGFTFSSYAMSWVRQAPGKGLEWVSAIIGSGASTYYADSVKGRFTISRDNSKNTLYLQMNSLRAEDTAVYYCAKGWFGGFNYWGQGTLVTVSSASVAAPSVFIFPPSDEQLKSGTASVVCLLNNFYPREAKVQWKVDNALQSGNSQESVTEQDSKDSTYSLSSTLTLSKADYEKHKVYACEVTHQGLSSPVTKSFNRGEC heavy 2: not shown light 2: not shown | 1.79
